# Laboratory results taken from paper PMC4097036 (Molecular immunology, 2014).
# Legend:
# [1] = molecular target: rBla g 1-EC (combined with the scFv for crystallography) (Blattella germanica, UniProt Q9UAM5); assay: SEC
# [2] = molecular target: anti-Bla g 1 scFv (chicken); assay: crystal structure
# [3] = molecular target: rBla g 1-EC D107A, with GST tag (Blattella germanica, UniProt Q9UAM5, point mutant); assay: ELISA
# [4] = molecular target: rBla g 1-EC Q41A, with GST tag (Blattella germanica, UniProt Q9UAM5, point mutant); assay: ELISA
# [5] = molecular target: rBla g 1-EC N96A, with GST tag (Blattella germanica, UniProt Q9UAM5, point mutant); assay: ELISA
# [6] = molecular target: rBla g 1-EC E200A, with GST tag (Blattella germanica, UniProt Q9UAM5, point mutant); assay: ELISA
# [7] = molecular target: rBla g 1-EC I53A, with GST tag (Blattella germanica, UniProt Q9UAM5, point mutant); assay: ELISA
# [8] = molecular target: rBla g 1-EC H113A, with GST tag (Blattella germanica, UniProt Q9UAM5, point mutant); assay: ELISA
# [9] = molecular target: rBla g 1-EC L60A, with GST tag (Blattella germanica, UniProt Q9UAM5, point mutant); assay: ELISA
# [10] = molecular target: rBla g 1-EC T80A, with GST tag (Blattella germanica, UniProt Q9UAM5, point mutant); assay: ELISA
# [11] = molecular target: rBla g 1-EC D76A, with GST tag (Blattella germanica, UniProt Q9UAM5, point mutant); assay: ELISA
# [12] = molecular target: rBla g 1-EC V83A, with GST tag (Blattella germanica, UniProt Q9UAM5, point mutant); assay: ELISA
# [13] = molecular target: rBla g 1-EC E79A, with GST tag (Blattella germanica, UniProt Q9UAM5, point mutant); assay: ELISA
# [14] = molecular target: rBla g 1-EC N193A, with GST tag (Blattella germanica, Bla g 1.0101, UniProt Q9UAM5, point mutant); assay: ELISA
# [15] = molecular target: rBla g 1-EC D50A, with GST tag (Blattella germanica, UniProt Q9UAM5, point mutant); assay: ELISA
# [16] = molecular target: rBla g 1-EC N93A, with GST tag (Blattella germanica, UniProt Q9UAM5, point mutant); assay: ELISA
# [17] = molecular target: rBla g 1-EC E161A, with GST tag (Blattella germanica, Bla g 1.0101, UniProt Q9UAM5, point mutant); assay: ELISA
# [18] = molecular target: rBla g 1-EC Q183A, with GST tag (Blattella germanica, Bla g 1.0101, UniProt Q9UAM5, point mutant); assay: ELISA
# [19] = molecular target: rBla g 1-EC N104A, with GST tag (Blattella germanica, UniProt Q9UAM5, point mutant); assay: ELISA
binder,measurement,setting,value
"anti-Bla g 1 scFv (scFv, V domains shown) VH: AVTLDESGGGLQTPGGALSLVCKASGFTFSVYDMMWVRQAPSKGLEWVAGIGITGSTYYASAVKGRATISRDNGQSTVRLQLNNLRAEDTGTYYCARGGAYSINKLDTWGQGTEVIVSS VL: QAALTQPSSVSANPGETVKITCSGGGSSSNYGWFQQKSPGSAPVTVIYNNNNRPSDIPSRFSGSKSGSTATLTITGVQADDEAVYFCGGRDSTYAGMFGAGTTLTVL",stoichiometry N,[1],1 Bla g 1 per scFv (printed as 2:2)
same,stoichiometry N,[2],2
same,ΔΔG against wild type (RT ln(IC50 WT/IC50 mutant)),[3],0.13 kCal/mol
same,ΔΔG against wild type (RT ln(IC50 WT/IC50 mutant)),[4],-0.05 kCal/mol
same,ΔΔG against wild type (RT ln(IC50 WT/IC50 mutant)),[5],0.33 kCal/mol
same,ΔΔG against wild type (RT ln(IC50 WT/IC50 mutant)),[6],-0.02 kCal/mol
same,ΔΔG against wild type (RT ln(IC50 WT/IC50 mutant)),[7],0.09 kCal/mol
same,ΔΔG against wild type (RT ln(IC50 WT/IC50 mutant)),[8],0.09 kCal/mol
same,ΔΔG against wild type (RT ln(IC50 WT/IC50 mutant)),[9],0 kCal/mol
same,ΔΔG against wild type (RT ln(IC50 WT/IC50 mutant)),[10],-1.7 kCal/mol
same,ΔΔG against wild type (RT ln(IC50 WT/IC50 mutant)),[11],-1.1 kCal/mol
same,ΔΔG against wild type (RT ln(IC50 WT/IC50 mutant)),[12],-0.33 kCal/mol
same,ΔΔG against wild type (RT ln(IC50 WT/IC50 mutant)),[13],-1.2 kCal/mol
same,ΔΔG against wild type (RT ln(IC50 WT/IC50 mutant)),[14],-2.1 kCal/mol
same,ΔΔG against wild type (RT ln(IC50 WT/IC50 mutant)),[15],0.06 kCal/mol
same,ΔΔG against wild type (RT ln(IC50 WT/IC50 mutant)),[16],0.31 kCal/mol
same,ΔΔG against wild type (RT ln(IC50 WT/IC50 mutant)),[17],0.33 kCal/mol
same,ΔΔG against wild type (RT ln(IC50 WT/IC50 mutant)),[18],0.33 kCal/mol
same,ΔΔG against wild type (RT ln(IC50 WT/IC50 mutant)),[19],0.4 kCal/mol
